The results in this text go back to paper PMC11754618 (2025).

First the molecules themselves.
T1: His6-Hs.USP18 (16-372) (human, UniProt Q9UMW8 16-372)
T1 chain: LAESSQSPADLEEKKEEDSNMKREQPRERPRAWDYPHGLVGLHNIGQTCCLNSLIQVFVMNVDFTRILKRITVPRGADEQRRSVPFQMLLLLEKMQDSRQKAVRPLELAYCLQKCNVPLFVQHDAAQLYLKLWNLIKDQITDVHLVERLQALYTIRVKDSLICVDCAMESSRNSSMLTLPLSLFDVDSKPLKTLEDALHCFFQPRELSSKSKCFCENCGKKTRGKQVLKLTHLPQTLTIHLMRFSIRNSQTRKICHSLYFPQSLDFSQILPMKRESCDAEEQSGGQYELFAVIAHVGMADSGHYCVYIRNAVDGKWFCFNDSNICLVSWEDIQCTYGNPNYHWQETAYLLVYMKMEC

T2: His6-Mm.USP18 (46-368) (mouse, UniProt Q9WTV6 46-368)
T2 chain: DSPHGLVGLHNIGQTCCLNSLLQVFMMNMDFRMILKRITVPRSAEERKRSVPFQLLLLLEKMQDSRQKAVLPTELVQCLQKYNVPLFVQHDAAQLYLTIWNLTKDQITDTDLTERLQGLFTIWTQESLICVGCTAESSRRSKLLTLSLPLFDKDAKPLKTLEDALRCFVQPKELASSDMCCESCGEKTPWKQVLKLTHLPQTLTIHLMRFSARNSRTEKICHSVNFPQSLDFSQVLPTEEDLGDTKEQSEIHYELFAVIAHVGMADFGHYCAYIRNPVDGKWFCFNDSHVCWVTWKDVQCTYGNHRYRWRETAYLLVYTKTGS

B1: Ac-mISG15CTD[R153Phe(guan)]-OH (domain or fragment)
chain: LSILVRNERGHSNIYEVFLTQTVDTLKKKVSQREQVHEDQFWLSFEGRPMEDKELLGEYGLKPQSTVIKHLRLFG
modifications: N-terminal acetyl; Phe(guan) (guanidino-phenylalanine) at 153
B2: Ac-mISG15CTD[R153Agb]-OH (domain or fragment)
chain: B1 chain with F74X
modifications: N-terminal acetyl; Agb (2-amino-4-guanidino-butyric acid) at 153
B3: Ac-mISG15CTD-OH (wild type) (domain or fragment)
chain: B1 chain with F74R
modifications: N-terminal acetyl

Numbering of substitutions follows the chain as printed.

One experiment has as its target T1, His6-Hs.USP18 (16-372). In words: SPR. For orientation: In SPR one partner is held on a chip, and binding of the other changes the refractive index at the surface.
In general, Kd refers to the constant that tells how readily two partners part at equilibrium. B1 came in with a dissociation constant Kd of 1900 nM.
On to B2, for which the Kd was 1200 nM.
The same measure, in the same setting: next, B3: 4300 nM.

Another experiment deals with T2, His6-Mm.USP18 (46-368). In words: SPR.
In turn, B1 displayed a Kd of 1750 nM.
B2 came in with a Kd of 4500 nM.
On the same count and under the same terms, next, B3: 2500 nM.
